The data set deals with Cav(pnY)GFP.
Chain of Cav(pnY)GFP (Q03135 whole entry): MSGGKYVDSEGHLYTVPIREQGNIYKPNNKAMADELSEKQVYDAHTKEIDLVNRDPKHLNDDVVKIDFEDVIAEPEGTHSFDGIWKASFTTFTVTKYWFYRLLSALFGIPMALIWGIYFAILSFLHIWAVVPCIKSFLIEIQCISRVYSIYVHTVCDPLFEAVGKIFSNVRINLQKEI

B1: calf-intestinal alkaline phosphatase (protein)
chain: LVPVEEEDPAFWNRQAAQALDVAKKLQPIQTAAKNVILFLGDGMGVPTVTATRILKGQMNGKLGPETPLAMDQFPYVALSKTYNVDRQVPDSAGTATAYLCGVKGNYRTIGVSAAARYNQCKTTRGNEVTSVMNRAKKAGKSVGVVTTTRVQHASPAGAYAHTVNRNWYSDADLPADAQMNGCQDIAAQLVNNMDIDVILGGGRKYMFPVGTPDPEYPDDASVNGVRKRKQNLVQAWQAKHQGAQYVWNRTALLQAADDSSVTHLMGLFEPADMKYNVQQDHTKDPTLQEMTEVALRVVSRNPRGFYLFVEGGRIDHGHHDDKAYMALTEAGMFDNAIAKANELTSELDTLILVTADHSHVFSFGGYTLRGTSIFGLAPSKALDSKSYTSILYGNGPGYALGGGSRPDVNDSTSEDPSYQQQAAVPQASETHGGEDVAVFARGPQAHLVHGVEEETFVAHIMAFAGCVEPYTDCNLPAPTTATSIPD
In the case of B1, the “dephosphorylation of pnY (Western blot with phospho-caveolin antibody)” value is “Cav(pnY)GFP was stable in buffered conditions, but dephosphorylated in a time and concentration dependent fashion”; the “dephosphorylation of pnY, seen as loss of the phospho-caveolin antibody signal in a Western blot” value is reported as “IB:pCav band present with CIP buffer alone, absent with CIP buffer + enzyme; total protein band present in both lanes”.

B2: protein Tyr phosphatase 1B (protein)
chain: MEMEKEFEQIDKSGSWAAIYQDIRHEASDFPCRVAKLPKNKNRNRYRDVSPFDHSRIKLHQEDNDYINASLIKMEEAQRSYILTQGPLPNTCGHFWEMVWEQKSRGVVMLNRVMEKGSLKCAQYWPQKEEKEMIFEDTNLKLTLISEDIKSYYTVRQLELENLTTQETREILHFHYTTWPDFGVPESPASFLNFLFKVRESGSLSPEHGPVVVHCSAGIGRSGTFCLADTCLLLMDKRKDPSSVDIKKVLLEMRKFRMGLIQTADQLRFSYLAVIEGAKFIMGDSSVQDQWKELSHEDLEPPPEHIPPPPRPPKRILEPHN
Consider B2, for which the “dephosphorylation of pnY (Western blot with phospho-caveolin antibody)” value was “Cav(pnY)GFP was stable in buffered conditions, but dephosphorylated in a time and concentration dependent fashion”; the “dephosphorylation of pnY, seen as loss of the phospho-caveolin antibody signal in a Western blot” value is “IB:pCav band present with PTP1B buffer alone, absent with PTP1B buffer + enzyme; total protein band present in both lanes, faint in the enzyme lane”.

The values are drawn from patent publication US20250270289.
